Key:
[1] = target: purified calf thymus DNA polymerase δ (calf (bovine)) (UniProt P28339); experiment: cell-based or functional assay
[2] = target: his-tagged Drosophila PCNA (UniProt P17917)
Sequence of his-tagged Drosophila PCNA (P17917 whole entry): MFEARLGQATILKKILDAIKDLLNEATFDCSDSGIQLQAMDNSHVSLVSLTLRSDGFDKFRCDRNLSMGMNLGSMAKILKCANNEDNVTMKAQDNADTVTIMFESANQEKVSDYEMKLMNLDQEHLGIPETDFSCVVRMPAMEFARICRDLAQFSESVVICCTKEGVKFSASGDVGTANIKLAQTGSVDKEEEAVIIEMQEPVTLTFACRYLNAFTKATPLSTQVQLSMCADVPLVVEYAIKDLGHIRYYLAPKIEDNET

Sequence of purified calf thymus DNA polymerase δ (calf (bovine)) (P28339 whole entry, stated change not applied): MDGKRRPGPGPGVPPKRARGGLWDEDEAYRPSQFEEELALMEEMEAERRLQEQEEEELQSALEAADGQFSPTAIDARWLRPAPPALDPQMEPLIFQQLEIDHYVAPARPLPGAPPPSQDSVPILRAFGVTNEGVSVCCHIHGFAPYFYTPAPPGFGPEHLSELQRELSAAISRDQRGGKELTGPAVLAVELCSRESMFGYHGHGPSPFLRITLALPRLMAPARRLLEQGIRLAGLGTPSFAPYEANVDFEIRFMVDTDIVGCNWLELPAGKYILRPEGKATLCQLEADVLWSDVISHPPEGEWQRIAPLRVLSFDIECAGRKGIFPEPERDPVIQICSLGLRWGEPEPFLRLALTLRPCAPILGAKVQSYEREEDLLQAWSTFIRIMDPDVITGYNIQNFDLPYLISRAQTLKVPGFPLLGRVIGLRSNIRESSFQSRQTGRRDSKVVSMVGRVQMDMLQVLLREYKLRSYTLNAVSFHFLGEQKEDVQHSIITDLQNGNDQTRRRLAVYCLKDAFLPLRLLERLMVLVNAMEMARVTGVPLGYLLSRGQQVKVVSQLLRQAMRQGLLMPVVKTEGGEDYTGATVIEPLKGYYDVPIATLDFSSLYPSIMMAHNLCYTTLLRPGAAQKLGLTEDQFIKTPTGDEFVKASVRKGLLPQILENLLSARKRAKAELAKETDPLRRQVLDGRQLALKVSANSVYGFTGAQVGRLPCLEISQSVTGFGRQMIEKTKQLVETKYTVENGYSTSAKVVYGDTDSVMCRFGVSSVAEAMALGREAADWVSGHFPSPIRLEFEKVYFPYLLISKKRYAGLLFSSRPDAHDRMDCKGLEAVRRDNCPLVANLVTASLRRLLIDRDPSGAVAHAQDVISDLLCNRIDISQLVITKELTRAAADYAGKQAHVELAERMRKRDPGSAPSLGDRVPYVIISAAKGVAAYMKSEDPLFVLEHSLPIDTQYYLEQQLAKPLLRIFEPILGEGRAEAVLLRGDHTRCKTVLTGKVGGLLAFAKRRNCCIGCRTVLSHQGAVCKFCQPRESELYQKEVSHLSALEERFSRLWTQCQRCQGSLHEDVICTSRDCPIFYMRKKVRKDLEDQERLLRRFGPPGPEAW

| solution assay of pol δ: extended DNA synthesis beyond model abasic template lesions, compared with wild-type PCNA (phosphorimager) [1] [%] | Substance | in situ DNA polymerase assay on Ni2+-IDA-paper ([alpha-32P]dGTP incorporation, PhosphorImager) [2] |
| --- | --- | --- |
| 40 | NH2-terminally his-tagged E^85>K mutant human PCNA (from UniProt P12004 1-261) | – |
| – | purified calf thymus DNA polymerase δ | almost no reactivity was observed corresponding to the spot of Drosophila PCNA |

— US6509383
